{
  "source": "the RNAGym collection of RNA variant scans (doi:10.7554/elife.80360)",
  "parents": {"B1": {"name": "HDV Ribozyme (parent)", "chain": "GGCCGGCAUGGUCCCAGCCUCCUCGCUGGCGCCGGCUGGGCAACAUUCCGAGGGGACCGUCCCCUCGGUAAUGGCGAAUGGGACCCA"}},
  "data": [
    {"variants_of": "B1", "experiment": "self-cleavage, relative activity (ratio to wild type); higher = more cleavage; co-transcriptional", "values": [
      {"variant": "GGCUGGCAUGGUCCCAGCCUCCUCGCAGGCGCCGGCUGGGCAACAUUCCGAGGGGACCGUCCCCUCGGUAAUGGCGAAUGGGACCCA", "self-cleavage": 0.246},
      {"variant": "GGCUGGCAUGGUCCCAGCCUCCUCGCGGGCGCCGGCUGGGCAACAUUCCGAGGGGACCGUCCCCUCGGUAAUGGCGAAUGGGACCCA", "self-cleavage": 0.453},
      {"variant": "GGCUGGCAUGGUCCCAGCCUCCUCGCUGGCGCCGGCUGGGCAACAUUCCGAGGGGACCGUCCCCUCGGUAAUGGCGAAUGCGACCCA", "self-cleavage": 0.135},
      {"variant": "GGCUGGCAUGGUCCCAGCCUCCUCGCUGGCGCCGGCUGGGCAACAUACCGAGGGGACCGUCCCCUCGGUAAUGGCGAAUGGGACCCA", "self-cleavage": 0.739},
      {"variant": "GGCUGGCAUGGUCCCAGCCUCCUCGCUGGCGCCGGCUGGGCAACAUUCCGAGGGGACCCUCCCCUCGGUAAUGGCGAAUGGGACCCA", "self-cleavage": 0.81},
      {"variant": "GGCCAGCAUGGUCCCAGCCUCCUCGCUGGCGCCGGCUGGGCAACAUUCCGAGGGGGCCGUCCCCUCGGUAAUGGCGAAUGGGACCCA", "self-cleavage": 0.225},
      {"variant": "GGCCAGCAUGGUCCCAGCCUCCUCGCUGGCGCCGGCUGGGCAACAUUCCGAGGGGUCCGUCCCCUCGGUAAUGGCGAAUGGGACCCA", "self-cleavage": 0.106},
      {"variant": "GGCUGGCAUGGUCCCAGCCUCCUCGCUGGCGCCGGCUGGGCAACAUUCCGAGGGGACCGUCCCCUCGCUAAUGGCGAAUGGGACCCA", "self-cleavage": 0.635},
      {"variant": "GGCUGGCAUGGUCCCAGCCUCCUCGCUGGCGCCGGCUGGGCAACAUUCCGAGGGGACCGUCCCCUCGAUAAUGGCGAAUGGGACCCA", "self-cleavage": 0.604},
      {"variant": "GGCUGGCAUGGUCCCAGCCUCCUCGCUGACGCCGGCUGGGCAACAUUCCGAGGGGACCGUCCCCUCGGUAAUGGCGAAUGGGACCCA", "self-cleavage": 0},
      {"variant": "GGCUGGCAUGGUCCCAGCCUCCUCGCUGCCGCCGGCUGGGCAACAUUCCGAGGGGACCGUCCCCUCGGUAAUGGCGAAUGGGACCCA", "self-cleavage": 0.0396},
      {"variant": "GGCUGGCAUGGUCCCAGCCUCCUCGCUGGCGCCGGCUGGGCAACAUUCCUAGGGGACCGUCCCCUCGGUAAUGGCGAAUGGGACCCA", "self-cleavage": 0.656},
      {"variant": "GGCUGGCAUGGUCCCAGCCUCCUCGCUGGCGCCGGCUAGGCAACAUUCCGAGGGGACCGUCCCCUCGGUAAUGGCGAAUGGGACCCA", "self-cleavage": 0.0978},
      {"variant": "GGCUGGCAUGGUCCCAGCCUCCUCGCUGGCGCCGGCUUGGCAACAUUCCGAGGGGACCGUCCCCUCGGUAAUGGCGAAUGGGACCCA", "self-cleavage": 0.13},
      {"variant": "GGCCAGCAUGGUCACAGCCUCCUCGCUGGCGCCGGCUGGGCAACAUUCCGAGGGGACCGUCCCCUCGGUAAUGGCGAAUGGGACCCA", "self-cleavage": 0},
      {"variant": "GGCCAGCAUGGUCCCAGCCUCCUCGCUGGCGCCGGCUGGGCAACAUUCCGAGGGGACCGUCCCCUCGGUAAUGGCGAAUGGGCCCCA", "self-cleavage": 0.175},
      {"variant": "GGCCAGCAUGGUCCCAGCCUCCUCGCUGGCGCCGGCUGGGCAACAUUCCGAGGGGACCGUCCCCUCGGUAAUGGCGAAUGGGUCCCA", "self-cleavage": 0.0426},
      {"variant": "GGCUGGCAUGGACCCAGCCUCCUCGCUGGCGCCGGCUGGGCAACAUUCCGAGGGGACCGUCCCCUCGGUAAUGGCGAAUGGGACCCA", "self-cleavage": 0.111},
      {"variant": "GGCUGGCAUGGCCCCAGCCUCCUCGCUGGCGCCGGCUGGGCAACAUUCCGAGGGGACCGUCCCCUCGGUAAUGGCGAAUGGGACCCA", "self-cleavage": 0.145},
      {"variant": "GGCCAGCAUGGUCCCAGCCUCCUCGCUGGCGCCGGCUGGGCAACAUUCCGAGGGGACCGUCCCCUCGGUAAUGGCGAAUGGGACCCC", "self-cleavage": 0.124},
      {"variant": "GGCCAGCAUGGUCCCAGCCUCCUCGCUGGCGCCGGCUGGGCAACAUUCCGAGGGGACCGUCCCCUCGGUUAUGGCGAAUGGGACCCA", "self-cleavage": 0.19},
      {"variant": "GGCUGGCAUGGUCCCAGCCUCCUCGCUGGCGCCGGCUGCGCAACAUUCCGAGGGGACCGUCCCCUCGGUAAUGGCGAAUGGGACCCA", "self-cleavage": 0.0536},
      {"variant": "GGCUGGCAUGGUCCCAGCCUCCUCGCUGGCGCCGGCUGGUCAACAUUCCGAGGGGACCGUCCCCUCGGUAAUGGCGAAUGGGACCCA", "self-cleavage": 0.48},
      {"variant": "GGCCAGCAUGGUCCCGGCCUCCUCGCUGGCGCCGGCUGGGCAACAUUCCGAGGGGACCGUCCCCUCGGUAAUGGCGAAUGGGACCCA", "self-cleavage": 0.35},
      {"variant": "GGCCAGCAUGGUCCCAGCCUCCUCGCUGGCGCCGGCUGGGCAACAUUCCGUGGGGACCGUCCCCUCGGUAAUGGCGAAUGGGACCCA", "self-cleavage": 0.104},
      {"variant": "GGCCAGCAUGGUCCCAGCCUCCUCGCUGGCGCCGGCUGGGCAACAUUCCGGGGGGACCGUCCCCUCGGUAAUGGCGAAUGGGACCCA", "self-cleavage": 0.203},
      {"variant": "GGCCAGCAUGGUCCCAGCCUCCUCGCUGGCGCCGGCUGGGCAACAUUCCGAGGGGACCGUCCCCUCGGUAUUGGCGAAUGGGACCCA", "self-cleavage": 0.231},
      {"variant": "GGCCAGCAUGGUCCCAGCCUCCUCGCUGGCGCCGGCUGGGCAACAUUCCGAGGGGACCGUCCCCUCGGUAAUGGCGAAUGGGACCCA", "self-cleavage": 0.199},
      {"variant": "GGCUGGCAUGGUCCCAGCCUCCUCGCUGGCGCCGGCUGGGCAACAUUCCGAGGGGACCGGCCCCUCGGUAAUGGCGAAUGGGACCCA", "self-cleavage": 0.939},
      {"variant": "GGCUGGCAUGGUCCCAGCCUCCUCGCUGGCGCCGGCAGGGCAACAUUCCGAGGGGACCGUCCCCUCGGUAAUGGCGAAUGGGACCCA", "self-cleavage": 0},
      {"variant": "GGCUGGCAUGGUCCCAGCCUCCUCGCUGGCGCCGGCUGGGCAACAUUCCGAGGGGACCGUCCCCUCGGUAAUGGCGAACGGGACCCA", "self-cleavage": 0.136},
      {"variant": "GGCUGGCAUGGUCCCAGCCUCCUCGCUGGCGCCGGCUGGGCAACAUUCCGAGGGGACCGUCCCCUCGGUAAUAGCGAAUGGGACCCA", "self-cleavage": 0.293}
    ]}
  ]
}
